{"source": "the RNAGym collection of RNA variant scans (doi:10.7554/elife.80360)", "parents": {"B1": {"name": "CPEB3 Ribozyme (parent)", "chain": "GGGGGCCACAGCAGAAGCGUUCACGUCGCGGCCCCUGUCAGAUUCUGGUGAAUCUGCGAAUUCUGCUGU"}}, "data": [{"variants_of": "B1", "test": "self-cleavage, relative activity (ratio to wild type); higher = more cleavage; co-transcriptional", "values": [{"variant": "A13C G47U", "self-cleavage": 0.959}, {"variant": "A13C G47C", "self-cleavage": 0.928}, {"variant": "A13C C39U", "self-cleavage": 0.555}, {"variant": "C12U U20A", "self-cleavage": 0.146}, {"variant": "C12U U20C", "self-cleavage": 0.165}, {"variant": "C12U U43C", "self-cleavage": 0.928}, {"variant": "C12U U43G", "self-cleavage": 0.706}, {"variant": "A13C G37U", "self-cleavage": 0.225}, {"variant": "A13C G37A", "self-cleavage": 0.14}, {"variant": "A13C A16G", "self-cleavage": 0.682}, {"variant": "A13C A16U", "self-cleavage": 0.185}, {"variant": "A13C A16C", "self-cleavage": 0.102}, {"variant": "A13G A23C", "self-cleavage": 0.781}, {"variant": "A13C G31A", "self-cleavage": 0.654}, {"variant": "A13C G31U", "self-cleavage": 0.508}, {"variant": "A13C U36C", "self-cleavage": 0.62}, {"variant": "C12U U64C", "self-cleavage": 0.785}, {"variant": "C12U U64A", "self-cleavage": 0.697}, {"variant": "C12U U64G", "self-cleavage": 0.757}, {"variant": "A13G C29G", "self-cleavage": 0.126}, {"variant": "A13G C29A", "self-cleavage": 0.42}, {"variant": "A13C C18A", "self-cleavage": 0.181}, {"variant": "A13C C18G", "self-cleavage": 0.0963}, {"variant": "A13C C18U", "self-cleavage": 0.262}, {"variant": "A13G A60C", "self-cleavage": 0.268}, {"variant": "A13G A60U", "self-cleavage": 0.282}, {"variant": "A13G A60G", "self-cleavage": 0.66}, {"variant": "A13C G56U", "self-cleavage": 0.51}, {"variant": "A13C G56A", "self-cleavage": 0.625}, {"variant": "A13C G56C", "self-cleavage": 0.367}, {"variant": "A13C A23U", "self-cleavage": 0.788}, {"variant": "A13C A23G", "self-cleavage": 0.507}, {"variant": "A13C C27A", "self-cleavage": 0.145}, {"variant": "A13C C27U", "self-cleavage": 0.15}, {"variant": "A13C C34G", "self-cleavage": 0.498}, {"variant": "A13C A51G", "self-cleavage": 0.903}, {"variant": "A13C U44A", "self-cleavage": 0.7}, {"variant": "A13C U44C", "self-cleavage": 0.51}, {"variant": "A13C U44G", "self-cleavage": 0.802}, {"variant": "A13C U55C", "self-cleavage": 0.439}, {"variant": "C12U U53A", "self-cleavage": 0.909}, {"variant": "C12U U53G", "self-cleavage": 0.771}, {"variant": "A13C C35U", "self-cleavage": 0.751}, {"variant": "A13C C35G", "self-cleavage": 0.323}, {"variant": "C12U U44C", "self-cleavage": 0.906}, {"variant": "A13C G65A", "self-cleavage": 0.431}, {"variant": "A13C G65C", "self-cleavage": 0.278}, {"variant": "A13C U61C", "self-cleavage": 0.281}, {"variant": "A13G A59U", "self-cleavage": 0.57}, {"variant": "A13G A59G", "self-cleavage": 0.946}, {"variant": "A13G A59C", "self-cleavage": 0.522}, {"variant": "A13C A40U", "self-cleavage": 0.23}, {"variant": "A13C A40C", "self-cleavage": 0.247}, {"variant": "C12U U61A", "self-cleavage": 0.822}, {"variant": "A13C U67G", "self-cleavage": 0.824}, {"variant": "A13C G19U", "self-cleavage": 0.138}, {"variant": "A13C G14U", "self-cleavage": 0.22}, {"variant": "A13C G14C", "self-cleavage": 0.228}, {"variant": "A13C G14A", "self-cleavage": 0.251}, {"variant": "A13C C24U", "self-cleavage": 0.543}, {"variant": "A13C C24A", "self-cleavage": 0.402}, {"variant": "C12U U36G", "self-cleavage": 0.193}, {"variant": "C12U U36A", "self-cleavage": 0.231}, {"variant": "C12U G50C", "self-cleavage": 0.974}, {"variant": "A13C U62G", "self-cleavage": 0.355}, {"variant": "A13G C22G", "self-cleavage": 0.199}, {"variant": "A13C C57A", "self-cleavage": 0.276}, {"variant": "A13C U64G", "self-cleavage": 0.922}, {"variant": "A13C U64A", "self-cleavage": 0.948}, {"variant": "C12U U46A", "self-cleavage": 1}, {"variant": "C12U U46C", "self-cleavage": 0.939}, {"variant": "C12U G68A", "self-cleavage": 0.997}, {"variant": "C12U G68U", "self-cleavage": 0.995}, {"variant": "A13C C33A", "self-cleavage": 0.593}, {"variant": "A13G C27U", "self-cleavage": 0.168}, {"variant": "A13C A15G", "self-cleavage": 0.662}, {"variant": "A13C G17A", "self-cleavage": 0.0886}, {"variant": "A13C G17C", "self-cleavage": 0.122}, {"variant": "C12U U26C", "self-cleavage": 0.996}, {"variant": "C12U U26G", "self-cleavage": 0.925}, {"variant": "C12U U26A", "self-cleavage": 0.91}, {"variant": "A13C C22U", "self-cleavage": 0.209}, {"variant": "A13C C45A", "self-cleavage": 0.761}, {"variant": "A13C C45G", "self-cleavage": 0.835}, {"variant": "A13C U20A", "self-cleavage": 0.149}, {"variant": "A13C U20C", "self-cleavage": 0.128}, {"variant": "A13G A52G", "self-cleavage": 1.02}, {"variant": "A13G A52C", "self-cleavage": 0.827}, {"variant": "A13C A59U", "self-cleavage": 0.479}, {"variant": "A13C A59C", "self-cleavage": 0.395}, {"variant": "A13C A59G", "self-cleavage": 0.794}, {"variant": "A13C U53A", "self-cleavage": 0.579}, {"variant": "A13C G41C", "self-cleavage": 0.214}, {"variant": "A13C G41U", "self-cleavage": 0.349}, {"variant": "A13C A60C", "self-cleavage": 0.301}, {"variant": "A13C A60G", "self-cleavage": 0.384}, {"variant": "C12U G65A", "self-cleavage": 1}, {"variant": "C12U G65C", "self-cleavage": 0.864}, {"variant": "C12U G65U", "self-cleavage": 0.948}, {"variant": "A13C C66A", "self-cleavage": 0.48}, {"variant": "A13C C66G", "self-cleavage": 0.862}, {"variant": "A13C C66U", "self-cleavage": 0.465}, {"variant": "A13G A51C", "self-cleavage": 0.874}, {"variant": "A13C U26A", "self-cleavage": 0.615}, {"variant": "A13C U26G", "self-cleavage": 0.113}, {"variant": "A13C U26C", "self-cleavage": 0.692}, {"variant": "A13C G58U", "self-cleavage": 0.933}, {"variant": "A13C G58C", "self-cleavage": 0.862}, {"variant": "A13C G58A", "self-cleavage": 0.754}, {"variant": "A13C G25C", "self-cleavage": 0.0875}, {"variant": "A13C G30U", "self-cleavage": 0.281}, {"variant": "A13C G30C", "self-cleavage": 0.451}, {"variant": "C12U U21A", "self-cleavage": 0.947}, {"variant": "C12U U21G", "self-cleavage": 0.537}, {"variant": "C12U G56A", "self-cleavage": 0.844}, {"variant": "C12U U69C", "self-cleavage": 1.07}, {"variant": "A13G A15C", "self-cleavage": 0.196}, {"variant": "A13G A15G", "self-cleavage": 0.82}, {"variant": "A13C U49C", "self-cleavage": 0.842}, {"variant": "A13C U49A", "self-cleavage": 0.922}, {"variant": "A13C U49G", "self-cleavage": 0.933}, {"variant": "A13C U69G", "self-cleavage": 0.96}, {"variant": "A13G C24A", "self-cleavage": 0.54}, {"variant": "A13G C24U", "self-cleavage": 0.712}, {"variant": "C12U U67A", "self-cleavage": 0.948}, {"variant": "C12U U67G", "self-cleavage": 0.938}, {"variant": "A13C U21C", "self-cleavage": 0.496}, {"variant": "A13C U21A", "self-cleavage": 0.772}, {"variant": "A13C U21G", "self-cleavage": 0.135}, {"variant": "A13C C63U", "self-cleavage": 0.732}, {"variant": "A13C C63G", "self-cleavage": 0.366}, {"variant": "A13C C63A", "self-cleavage": 0.467}, {"variant": "A13C U46C", "self-cleavage": 0.761}, {"variant": "C12U U62G", "self-cleavage": 0.542}, {"variant": "C12U U62A", "self-cleavage": 0.819}, {"variant": "A13C G28A", "self-cleavage": 0.108}, {"variant": "A13C G28U", "self-cleavage": 0.116}, {"variant": "A13C G28C", "self-cleavage": 0.149}, {"variant": "C12U U49C", "self-cleavage": 0.971}, {"variant": "C12U U49G", "self-cleavage": 1}, {"variant": "A13C U43G", "self-cleavage": 0.32}, {"variant": "A13C U43A", "self-cleavage": 0.514}, {"variant": "A13G A40G", "self-cleavage": 0.831}, {"variant": "A13G A40U", "self-cleavage": 0.455}, {"variant": "A13C G50U", "self-cleavage": 0.909}, {"variant": "A13C G50C", "self-cleavage": 0.787}, {"variant": "A13C C32A", "self-cleavage": 0.55}, {"variant": "A13C G68C", "self-cleavage": 0.917}, {"variant": "A13C G68A", "self-cleavage": 0.921}, {"variant": "A13G A42U", "self-cleavage": 0.74}, {"variant": "A13C C29U", "self-cleavage": 0.0773}, {"variant": "A13C C29A", "self-cleavage": 0.21}, {"variant": "A13C C54U", "self-cleavage": 0.773}, {"variant": "A13C C54A", "self-cleavage": 0.414}, {"variant": "A13C C54G", "self-cleavage": 0.45}, {"variant": "A13C A52C", "self-cleavage": 0.77}, {"variant": "A13C A52U", "self-cleavage": 0.837}, {"variant": "C12U G58A", "self-cleavage": 1.01}, {"variant": "C12U G58U", "self-cleavage": 0.991}, {"variant": "C12U U38C", "self-cleavage": 0.921}, {"variant": "C12U U38G", "self-cleavage": 0.277}, {"variant": "A13G C18A", "self-cleavage": 0.0625}, {"variant": "A13G C18G", "self-cleavage": 0.169}, {"variant": "C12U U55G", "self-cleavage": 0.616}, {"variant": "C12U U55C", "self-cleavage": 0.83}, {"variant": "A13C A42G", "self-cleavage": 0.506}, {"variant": "A13C A42U", "self-cleavage": 0.561}]}]}
